*1 amine or outer side, *2 acyl side, *3 side chain or, on linkers, in order; H or OH if unused. Where a SMILES comes first, the peptide text is derived from it. Side-chain parts run from the residue outwards. [ ]: non-standard residue; d: D form. ξ: configuration not given here. γGlu = O=C(O)[C@H](CCC(=O)[*:2])N[*:1]; ξE = NC(CCC(=O)O)C(=O)O; Dap = NC[C@H](N)C(=O)O; Aoc = NCCCCCCCC(=O)O; CO = O=C([*:1])[*:2]
Test: Radiochemical purity and stability of 99mTc-Compound II after room temperature labelling of kit formulations (radio-HPLC)
Assay type: physicochemical
Details: 0.1 mg tin chloride
Procedure: A Compound II kit vial from Example 2 was removed from the refrigerator and allowed to warm to room temperature (17-27° C.) for 15-30 min. The vial was put into a suitable radioactive shielding container. One to Two milliliter (≦50 mCi) of ^99mTc pertechnetate injection was added to the vial using a lead shielded syringe. Before removing the syringe from the vial, equal volume of headspace was withdrawn in order to normalize the pressure inside the vial. The vial was gently swirled to completely dissolve the powder and then allowed to stand at ambient temperature (17-27° C.) for 15 minutes. 5-6 mL of 0.9% sodium chloride injection, USP, was then added to the vial. The labeled solution was stored at room temperature (17-27° C.) and used within 6 hours of preparation. The Radio-HPLC system used for the following experiment consisted of a Waters 600 intelligent pump, a Bioscan Flow-Count radiodetector, and a Waters Nova-Pak C18 (3.9×150 mm) column, using Laura v1.5 radiochromatogram software. 1-5 μL of the ^99mTc-Compound II sample was injected into the HPLC and eluted with an aqueous mobile phase 0.1% trifluoroacetic acid in water (A) and Acetonitrile (B) at a linear gradient of 25% B to 35% B over 20 minutes at a flow rate of 1 mL/min. […] The radiochemical purity of ^99mTc-Compound II was calculated as follows: Radiochemical purity=isomer A %+isomer B % (FIG. 1) Using the methods described herein, Compound II was subjected to room temperature labelling at varying pH. Using the methods described herein, Compound II was subjected to room temperature labelling with varying amounts of EDTA. Using the methods described herein, Compound II was subjected to room temperature labelling with varying amounts of sodium gluconate.

N[C@@H](CNC(=O)[C@H](Cc1ccccc1)NC(=O)[C@H](Cc1ccccc1)NC(=O)CCCCCCCNC(=O)CC[C@H](NC(=O)NC(CCC(=O)O)C(=O)O)C(=O)O)C(=O)N[C@@H](CC(=O)O)C(=O)N[C@@H](CS)C(=O)O (stereo partly drawn) [EC0652] (H-[Dap]([Phe-Phe-Aoc-γGlu-CO-ξE])-Asp-Cys-OH)
RCP (%) Time (6 Hr) (kit 0.1 mg EC0652, 1 mg sodium gluconate, 0.3 mg EDTA, pH 6.8, 6 Hr): 91.7%
RCP (%) Time (6 Hr) (kit 0.1 mg EC0652, 20 mg sodium gluconate, 0.3 mg EDTA, pH 6.8, 6 Hr): 97.9%
RCP (%) Time (0 Hr) (kit 0.1 mg EC0652, 25 mg sodium gluconate, 0 mg EDTA, pH 6.8, 0 Hr): 85.37%
RCP (%) Time (6 Hr) (kit 0.1 mg EC0652, 25 mg sodium gluconate, 0 mg EDTA, pH 6.8, 6 Hr): 88.06%
RCP (%) Time (0 Hr) (kit 0.1 mg EC0652, 25 mg sodium gluconate, 0.005 mg EDTA, pH 6.8, 0 Hr): 83.69%
RCP (%) Time (6 Hr) (kit 0.1 mg EC0652, 25 mg sodium gluconate, 0.005 mg EDTA, pH 6.8, 6 Hr): 74.46%
RCP (%) Time (0 Hr) (kit 0.1 mg EC0652, 25 mg sodium gluconate, 0.01 mg EDTA, pH 6.8, 0 Hr): 85.92%
RCP (%) Time (6 Hr) (kit 0.1 mg EC0652, 25 mg sodium gluconate, 0.01 mg EDTA, pH 6.8, 6 Hr): 94.03%
RCP (%) Time (0 Hr) (kit 0.1 mg EC0652, 25 mg sodium gluconate, 0.1 mg EDTA, pH 6.8, 0 Hr): 95.77%
RCP (%) Time (6 Hr) (kit 0.1 mg EC0652, 25 mg sodium gluconate, 0.1 mg EDTA, pH 6.8, 6 Hr): 95.33%
RCP (%) Time (0 Hr) (kit 0.1 mg EC0652, 25 mg sodium gluconate, 0.30 mg EDTA, pH 6.8, 0 Hr (Table 5)): 97.02%
RCP (%) Time (6 Hr) (kit 0.1 mg EC0652, 25 mg sodium gluconate, 0.30 mg EDTA, pH 6.8, 6 Hr (Table 5)): 97.49%
RCP (%) Time (6 Hr) (kit 0.1 mg EC0652, 25 mg sodium gluconate, 0.3 mg EDTA, pH 6.8, 6 Hr (Table 6)): 98.5%
Radiochemical Purity (%) Time (0 Hr) (kit 0.1 mg EC0652, 25 mg sodium gluconate, 0.3 mg EDTA, pH 5.1, 0 Hr after room temperature 99mTc labelling): 97.7%
Radiochemical Purity (%) Time (6 Hr) (kit 0.1 mg EC0652, 25 mg sodium gluconate, 0.3 mg EDTA, pH 5.1, 6 Hr after room temperature 99mTc labelling): 85.5%
Radiochemical Purity (%) Time (0 Hr) (kit 0.1 mg EC0652, 25 mg sodium gluconate, 0.3 mg EDTA, pH 6.2, 0 Hr): 96.8%
Radiochemical Purity (%) Time (6 Hr) (kit 0.1 mg EC0652, 25 mg sodium gluconate, 0.3 mg EDTA, pH 6.2, 6 Hr): 94.1%
Radiochemical Purity (%) Time (0 Hr) (kit 0.1 mg EC0652, 25 mg sodium gluconate, 0.3 mg EDTA, pH 6.8, 0 Hr (Table 3)): 97.4%
Radiochemical Purity (%) Time (6 Hr) (kit 0.1 mg EC0652, 25 mg sodium gluconate, 0.3 mg EDTA, pH 6.8, 6 Hr (Table 3)): 94.8%
Radiochemical Purity (%) Time (0 Hr) (kit 0.1 mg EC0652, 25 mg sodium gluconate, 0.3 mg EDTA, pH 7.4, 0 Hr): 96.5%
Radiochemical Purity (%) Time (6 Hr) (kit 0.1 mg EC0652, 25 mg sodium gluconate, 0.3 mg EDTA, pH 7.4, 6 Hr): 96.0%
RCP (%) Time (0 Hr) (kit 0.1 mg EC0652, 25 mg sodium gluconate, 1.0 mg EDTA, pH 6.8, 0 Hr): 96.69%
RCP (%) Time (6 Hr) (kit 0.1 mg EC0652, 25 mg sodium gluconate, 1.0 mg EDTA, pH 6.8, 6 Hr): 96.87%
RCP (%) Time (6 Hr) (kit 0.1 mg EC0652, 30 mg sodium gluconate, 0.3 mg EDTA, pH 6.8, 6 Hr): 97.0%
RCP (%) Time (6 Hr) (kit 0.1 mg EC0652, 50 mg sodium gluconate, 0.3 mg EDTA, pH 6.8, 6 Hr): 98.0%

— patent US20170368208A1, “CANCER IMAGING AGENT” (ENDOCYTE, INC., priority 2015, published 2017)
